Results from patent publication US20200048312A1.

What was measured:
[1] = target: antibodies of human serum sample 16CDV61197 (Zika IgG positive) (human); experiment: blocking of wing DAGS ECL signal
[2] = target: antibodies of human serum sample 16CDV61275 (Zika IgG) (human); experiment: blocking of wing DAGS ECL signal
[3] = target: antibodies of human serum sample 16CDV61278 (Zika IgG positive) (human); experiment: blocking of wing DAGS ECL signal
[4] = target: antibodies of human serum sample 16CDV61197 (Zika IgG positive) (human); experiment: blocking of ß-ladder DAGS ECL signal
[5] = target: antibodies of human serum sample 16CDV61275 (Zika IgG) (human); experiment: blocking of ß-ladder DAGS ECL signal
[6] = target: antibodies of human serum sample 16CDV61278 (Zika IgG positive) (human); experiment: blocking of ß-ladder DAGS ECL signal

B1: Dengue virus type 4 NS1 full length (protein)
chain: DTGCAVSWSGKELKCGSGIFVIDNVHTWTEQYKFQPESPARLASAILNAHEDGVCGIRSTTRLENIMWKQITNELNYVLWEGGHDLTVVAGDVKGVLSKGKRALAPPVNDLKYSWKTWGKAKIFTPEAKNSTFLIDGPDTSECPNERRAWNFLEVEDYGFGMFTTNIWMKFREGSSEVCDHRLMSAAIKDQKAVHADMGYWIESSKNQTWQIEKASLIEVKTCLWPKTHTLWSNGVLESQMLIPKAYAGPFSQHNYRQGYATQTVGPWHLGKLEIDFGECPGTTVTIQEDCDHRGPSLRTTTASGKLVTQWCCRSCTMPPLRFLGEDGCWYGMEIRPLSEKEENMVKSQVSA
[1]
  Blocking [%]: 0.891%
  Normalized to Zika Blocking [%]: 1.2%
[2]
  Blocking [%]: 2.48%
  Normalized to Zika Blocking [%]: 3.3%
[3]
  Blocking [%]: 4.5%
  Normalized to Zika Blocking [%]: 4.9%
[4]
  Blocking [%]: 31.6%
  Normalized to Zika Blocking [%]: 50.3%
[5]
  Blocking [%]: 25.1%
  Normalized to Zika Blocking [%]: 27.3%
[6]
  Blocking [%]: 2.6%
  Normalized to Zika Blocking [%]: 3.7%
